Common to all, as to experiment: ITC
Assay [1] concerns the target mouse CSL core domain (residues 53-474), wild type (mouse) (UniProt P31266).
The target of assay [2] is BTD of mouse CSL (residues 203-393) (mouse) (UniProt P31266).
In assay [3] the target is mouse CSL core domain (53-474) mutant V263R (mouse) (UniProt P31266).
The target in assay [4] is mouse CSL core domain (53-474) mutant F261R (mouse) (UniProt P31266).
For assay [5], the target named is mouse CSL core domain (53-474) mutant A284R (mouse) (UniProt P31266).
The target in assay [6] is mouse CSL core domain (53-474) mutant Q333R (mouse) (UniProt P31266).
Assay [7] deals with mouse CSL core domain (residues 53-474), wild type (mouse) (UniProt P31266). This is another data set of the same source.
Assay [8] shares this target. The source holds these as a separate data set.
The target is the same in assay [9]. The source holds these as a separate data set.
Assay [10] addresses mouse CSL core domain (residues 53-474), wild type (mouse, UniProt P31266 53-474).

Read-outs that look alike come from different tables or passages of the source.

Chain of mouse CSL core domain (residues 53-474), wild type (mouse) (P31266 53-474): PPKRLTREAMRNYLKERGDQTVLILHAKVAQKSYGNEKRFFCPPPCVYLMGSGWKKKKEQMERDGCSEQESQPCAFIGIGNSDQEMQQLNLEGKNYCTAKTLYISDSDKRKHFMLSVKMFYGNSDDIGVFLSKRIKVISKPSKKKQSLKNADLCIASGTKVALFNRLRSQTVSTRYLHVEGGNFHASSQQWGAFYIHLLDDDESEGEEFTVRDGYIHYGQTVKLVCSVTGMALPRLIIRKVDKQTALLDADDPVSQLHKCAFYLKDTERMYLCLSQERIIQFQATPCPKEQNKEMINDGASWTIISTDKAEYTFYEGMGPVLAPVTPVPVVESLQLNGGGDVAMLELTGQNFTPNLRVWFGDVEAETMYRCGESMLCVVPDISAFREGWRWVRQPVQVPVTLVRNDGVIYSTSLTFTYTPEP
Chain of mouse CSL core domain (53-474) mutant F261R (mouse) (P31266 53-474 F261R): as the sequence (P31266 53-474) above, with F209R counted along it
Chain of mouse CSL core domain (53-474) mutant Q333R (mouse) (P31266 53-474 Q333R): as the sequence (P31266 53-474) above, with Q281R counted along it
Chain of mouse CSL core domain (53-474) mutant V263R (mouse) (P31266 53-474 V263R): as the sequence (P31266 53-474) above, with V211R counted along it
Chain of mouse CSL core domain (residues 53-474), wild type (P31266 53-474): as the sequence (P31266 53-474) above
Chain of BTD of mouse CSL (residues 203-393) (mouse) (P31266 203-393): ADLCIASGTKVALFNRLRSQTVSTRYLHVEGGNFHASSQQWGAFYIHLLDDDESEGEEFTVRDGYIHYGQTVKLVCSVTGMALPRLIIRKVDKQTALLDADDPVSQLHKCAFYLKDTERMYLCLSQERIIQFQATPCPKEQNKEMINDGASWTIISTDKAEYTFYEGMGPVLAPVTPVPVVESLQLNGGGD
Chain of mouse CSL core domain (53-474) mutant A284R (mouse) (P31266 53-474 A284R): as the sequence (P31266 53-474) above, with A232R counted along it

In [1], “mouse KyoT2 (residues 184-200) (peptide)” displayed a Ka of 3.1e+07 M⁻¹ and a dH of -13.1 kcal/mol.

On to “KyoT2 V186A (in the construct 184-210) (peptide)”, for which, in assay [1], the Kd stood at 69 nM and the dH was -13.7 kcal/mol.

“RAM domain of Notch1, wild type (from UniProt P46531 19-2555) (domain or fragment)”: in [1], the Ka turned out to be 6.8e+07 M⁻¹, the Kd turned out to be 15 nM and the dH is -18.2 kcal/mol.

For “mouse KyoT2 (residues 184-210) (peptide)”, the dissociation constant (Kd) in [2] amounted to 26 nM; in assay [1], 12 nM; in assay [3] it was 19 nM; in [4], 6300 nM; in assay [5] it was 7200 nM; in assay [6], 51 nM. Besides, the Kd in [7] and in [8] was 11 nM in each case. Further, the dH in assay [2] is -13.6 kcal/mol; in [1], -15.5 kcal/mol; in [3], -12.9 kcal/mol; in assay [4], -5.6 kcal/mol; in assay [5], -10.5 kcal/mol; in assay [6], -11.7 kcal/mol. For the same molecule, the dH was -11 kcal/mol in [7] and -14.6 kcal/mol in [8]. For the same molecule, the Ka in assay [1] was found to be 8.5e+07 M⁻¹; in assay [3], 3.1e+07 M⁻¹; in assay [4], 340000 M⁻¹; in assay [6], 2e+07 M⁻¹; in assay [7], 1.1e+08 M⁻¹; in assay [8] it was 9.4e+07 M⁻¹. This molecule returned a stoichiometry N in [1] of 1.

In assay [1], “RAM domain of Notch1, mutant Q1763A (from UniProt P46531 19-2555) (domain or fragment)” showed a Ka of 2e+07 M⁻¹, a Kd of 22 nM and a dH of -7.5 kcal/mol.

With “KyoT2 KD196AA (in the construct 184-210) (peptide)”, in assay [1], the Ka came to 1.2e+08 M⁻¹, the Kd is 12 nM and the dH is -16 kcal/mol.

In assay [1], “mouse KyoT2 (residues 182-210) (peptide)” yielded a Ka of 7.1e+07 M⁻¹, a dissociation constant (Kd) of 15 nM and a dH of -16 kcal/mol.

Molecule VWWP [KyoT2 tetrapeptide VWWP (residues 190-193)] yielded a dissociation constant Kd in assay [9] of 8000 nM.

As to KAPVWWPMKD [KyoT2 peptide KAPVWWPMKD (residues 187-196)], the “fold enhancement in binding against the peptide APVWWPMK” value in [10] is about 40 fold.

Take APVWWPMK [KyoT2 peptide APVWWPMK (residues 188-195)]: in [10], the binding result is recorded as “binds”.

These data come from article PMC3947186 (Structure (London, England : 1993), 2013).
